The target in test [1] is T1, N-myristoylated 4-mer lipopeptide Myr-GAAL.
T1 chain: GAAL
The test is described as follows: size-exclusion chromatography of in vitro assembled heavy chain/β2m/ligand complex. As to conditions: chain shown with the change; parent: est. 160; read off a plot. For orientation: In gel filtration, larger molecules generally elute earlier.

In another test the target is T2, LANTVATL peptide.
T2 chain: LANTVATL
The test is described as above. Particulars: chain shown with the change; parent: est. 160; read off a plot.

B1: HLA-C∗14:02 heavy chain, ectodomain (soluble form) S9Y (protein)
chain: AGSHSMRYFYTSVSRPGRGEPRFIAVGYVDDTQFVRFDSDAASPRGEPRAPWVEQEGPEYWDRETQKYKRQAQTDRVSLRNLRGYYNQSEAGSHTLQWMFGCDLGPDGRLLRGYDQSAYDGKDYIALNEDLRSWTAADTAAQITQRKWEAAREAEQRRAYLEGTCVEWLRRYLENGKETLQRAEHPKTHVTHHPVSDHEATLRCWALGFYPAEITLTWQWDGEDQTQDTELVETRPAGDGTFQKWAAVVVPSGEEQRYTCHVQHEGLPEPLTLRWEP
Regarding B1, the figures for the response (in test [1]; with LANTVATL peptide) were 30 mAU and 180 mAU, respectively.

(Values after publication PMC9243169.)
